Publication PMC7736860

Legend:
Assay in all cases: EMSA
Conditions in all cases: Chemiluminescent EMSA kit (Beyotime); buffer, salt, pH and temperature not stated
[1] = target: T1, BTF3 (Arabidopsis thaliana) (UniProt Q9SMW7)
T1 sequence: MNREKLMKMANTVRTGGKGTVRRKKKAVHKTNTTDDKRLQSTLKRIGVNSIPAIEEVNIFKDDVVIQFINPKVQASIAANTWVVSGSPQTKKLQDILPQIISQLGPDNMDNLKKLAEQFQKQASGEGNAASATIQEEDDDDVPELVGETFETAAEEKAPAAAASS

[2] = target: T2, HAT1 (Arabidopsis thaliana) (UniProt P46600)
T2 sequence: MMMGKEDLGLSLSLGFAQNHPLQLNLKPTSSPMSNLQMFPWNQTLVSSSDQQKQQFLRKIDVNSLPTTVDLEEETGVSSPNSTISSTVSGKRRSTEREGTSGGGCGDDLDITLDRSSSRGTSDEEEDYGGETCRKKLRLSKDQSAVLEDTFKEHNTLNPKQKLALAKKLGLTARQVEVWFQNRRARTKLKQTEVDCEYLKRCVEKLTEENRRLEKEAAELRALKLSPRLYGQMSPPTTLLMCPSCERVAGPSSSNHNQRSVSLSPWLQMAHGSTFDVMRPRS

[3] = target: T3, TEM1 (TEMPRANILLO1) (Arabidopsis thaliana) (UniProt Q9C6M5)
T3 sequence: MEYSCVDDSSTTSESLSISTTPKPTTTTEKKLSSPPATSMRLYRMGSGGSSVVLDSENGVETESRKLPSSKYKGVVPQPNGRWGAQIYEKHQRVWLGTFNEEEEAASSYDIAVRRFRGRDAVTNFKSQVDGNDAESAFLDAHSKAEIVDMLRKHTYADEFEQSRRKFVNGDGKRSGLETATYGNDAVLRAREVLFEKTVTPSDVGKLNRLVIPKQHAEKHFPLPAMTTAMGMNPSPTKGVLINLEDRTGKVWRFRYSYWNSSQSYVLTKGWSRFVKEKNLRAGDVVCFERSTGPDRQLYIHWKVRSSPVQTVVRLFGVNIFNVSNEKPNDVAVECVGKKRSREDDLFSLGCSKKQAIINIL

[4] = target: T4, bHLH106 (Arabidopsis thaliana) (UniProt O80674)
T4 sequence: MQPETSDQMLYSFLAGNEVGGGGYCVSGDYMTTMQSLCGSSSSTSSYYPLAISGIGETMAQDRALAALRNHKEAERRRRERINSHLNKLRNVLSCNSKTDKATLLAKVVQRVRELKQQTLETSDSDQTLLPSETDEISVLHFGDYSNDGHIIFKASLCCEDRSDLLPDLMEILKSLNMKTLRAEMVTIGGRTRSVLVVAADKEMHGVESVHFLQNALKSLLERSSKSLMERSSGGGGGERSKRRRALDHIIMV

[5] = target: T5, bZIP1664 (Arabidopsis thaliana) (UniProt F4I978)
T5 sequence: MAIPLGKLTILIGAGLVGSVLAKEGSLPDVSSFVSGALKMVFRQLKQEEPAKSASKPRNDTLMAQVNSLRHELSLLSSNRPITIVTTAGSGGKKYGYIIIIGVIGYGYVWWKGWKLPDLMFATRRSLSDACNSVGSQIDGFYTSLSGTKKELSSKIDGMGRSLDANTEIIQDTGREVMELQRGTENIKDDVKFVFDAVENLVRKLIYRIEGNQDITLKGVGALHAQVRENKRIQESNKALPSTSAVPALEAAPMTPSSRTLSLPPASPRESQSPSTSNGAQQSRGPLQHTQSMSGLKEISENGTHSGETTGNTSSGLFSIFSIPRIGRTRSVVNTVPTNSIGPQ

Measured: binding

GTGAAACAGCGTGTGTTATGCACAATAATGGATTCCCGAAGTGGAAGGGTACATTTGTCCTTTCGAGATCAATTTCTCGATACAGTAAAAATGGGCCATTGTTGTTTACTTTTCCTTGGTGTTAAAACAATAATGTAGTGCCCCCACTTAGATATTTTTTTGCTAGGTTTTGGCTCCAACCCAAGAAAAATTCGTTCGGTGACTAATAATAATCGCTGACCCCGA (double strand)
binds: all assays above
